Measured values reported in US20220016245A1, “CONJUGATE OF BIOTIN-MODIFIED DIMER AND PHTHALOCYANINE DYE” (The University of Tokyo, priority 2018, published 2022).
Each block holds one molecule with its values, some of them ahead of it.

Tests used:
[1] = target: T1, Recombinant Human CEACAM-5/CD66e Protein, CF (R & D SYSTEMS) (human, UniProt P06731 35-685); test: SPR, Biacore T200; CEACAM5 immobilized by amine coupling (279 RU), CEA-V2122 as analyte, single-cycle kinetics, bivalent analysis fit (KD = kd1/ka1)
T1 construct: Bought protein, immobilized on the sensor chip by amine coupling
T1 sequence (looked up): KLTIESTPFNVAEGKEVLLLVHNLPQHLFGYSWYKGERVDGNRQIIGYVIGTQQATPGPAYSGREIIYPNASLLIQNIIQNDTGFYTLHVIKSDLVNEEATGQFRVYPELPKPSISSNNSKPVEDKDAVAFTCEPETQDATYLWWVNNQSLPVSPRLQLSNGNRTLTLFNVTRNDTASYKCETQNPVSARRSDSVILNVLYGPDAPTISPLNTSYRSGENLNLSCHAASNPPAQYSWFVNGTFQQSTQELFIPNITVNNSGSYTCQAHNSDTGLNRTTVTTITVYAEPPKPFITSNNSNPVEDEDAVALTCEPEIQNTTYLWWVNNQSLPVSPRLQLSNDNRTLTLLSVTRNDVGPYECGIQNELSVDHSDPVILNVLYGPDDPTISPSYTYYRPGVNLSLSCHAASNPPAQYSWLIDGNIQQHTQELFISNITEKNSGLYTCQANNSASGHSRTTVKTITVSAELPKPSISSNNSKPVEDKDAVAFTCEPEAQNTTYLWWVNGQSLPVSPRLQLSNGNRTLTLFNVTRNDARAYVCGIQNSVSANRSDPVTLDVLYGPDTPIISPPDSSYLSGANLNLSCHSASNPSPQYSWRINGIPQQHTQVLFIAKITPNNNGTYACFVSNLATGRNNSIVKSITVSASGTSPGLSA

CEACAM5 = target: T2, CEACAM5 (Homo sapiens, UniProt P06731); test: cell staining of CEACAM5-expressing cell line using FITC-labeled CEA-V2122; assay type: cell-based
T2 construct: endogenous in cells; host or cells: MKN-45 (CEACAM5-positive); DLD1 (CEACAM5-negative control)
T2 sequence (P06731 35-676): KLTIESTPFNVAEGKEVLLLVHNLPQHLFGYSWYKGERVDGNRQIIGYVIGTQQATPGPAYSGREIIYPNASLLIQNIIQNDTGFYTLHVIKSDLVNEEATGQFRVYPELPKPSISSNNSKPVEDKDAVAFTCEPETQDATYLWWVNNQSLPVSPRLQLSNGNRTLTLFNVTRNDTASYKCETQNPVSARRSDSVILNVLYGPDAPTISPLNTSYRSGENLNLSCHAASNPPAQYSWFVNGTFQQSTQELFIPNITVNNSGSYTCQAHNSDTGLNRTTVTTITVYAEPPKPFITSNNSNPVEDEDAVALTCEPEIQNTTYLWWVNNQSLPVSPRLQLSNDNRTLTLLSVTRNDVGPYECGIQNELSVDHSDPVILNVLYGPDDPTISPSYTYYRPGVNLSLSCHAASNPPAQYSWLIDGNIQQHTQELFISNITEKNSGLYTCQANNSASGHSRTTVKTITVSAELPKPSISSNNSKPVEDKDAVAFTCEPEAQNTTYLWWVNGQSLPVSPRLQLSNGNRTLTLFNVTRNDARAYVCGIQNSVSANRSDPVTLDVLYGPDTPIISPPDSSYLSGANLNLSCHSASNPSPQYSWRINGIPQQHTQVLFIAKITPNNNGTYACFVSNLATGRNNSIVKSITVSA
Procedure: In order to stain a CEACAM5 expression-positive cancer cell line, FITC labeling was carried out on the cell line, using 100 μg of a purified CEA-V2122 protein. Specifically, labeling was carried out using Fluorescein Labeling Kit—NH2 (DOJINDO LABORATORIES) in accordance with the protocol and amount described in the operating manual included with the kit, and the obtained product was defined to be CEA-V2122-FITC. Specific staining of the CEACAM5 expression-positive cancer cell line is as follows. That is, CEACAM5-positive human stomach cancer-derived MKN-45 cells and CEACAM5-negative human colon cancer-derived DLD1 cells were each seeded on a CELLSTAR, μClear, 96-well plate (Greiner) to a cell density of 2.0×10^4 cells/well, and thereafter, the cells were cultured overnight. Subsequently, a culture solution containing 20 nM CEA-V2122-FITC and 1 μM Hoechist was added to the 96-well plate to a concentration of 100 μL/well, and the obtained mixture was then reacted at 4° C. for 30 minutes. Thereafter, each image was taken using In Cell Analyzer 6000 (GE Healthcare Life Sciences).

[2] = target: T3, Recombinant Human CEACAM-5/CD66e Protein (Homo sapiens, UniProt P06731); test: SPR (Biacore T200) affinity of CEA-V2122 for antigen CEACAM5; assay type: binding
T3 construct: purchased R & D SYSTEMS
T3 sequence (P06731 35-676): T2 sequence (P06731 35-676)

[3] = single-cycle kinetics, bivalent analysis mode

Kd [1]: 1.08 pM
B1: CEA-V2122 (scFv)
chain: QVKLEQSGAEVVKPGASVKLSCKASGFNIKDSYMHWLRQGPGQRLEWIGWIDPENGDTEYAPKFQGKATFTTDTSANTAYLGLSSLRPEDTAVYYCNEGTPTGPYYFDYWGQGTLVTVSSGGGGSGGGGSGGGGSENVLTQSPSSMSVSVGDRVNIACSASSSVPYMHWLQQKPGKSPKLLIYLTSNLASGVPSRFSGSGSGTDYSLTISSVQPEDAATYYCQQRSSYPLTFGGGTKLEIKGGGGSGGGGAEAGITGTWSDQLGDTFIVTAGADGALTGTYENAVGGAESRYVLTGRYDSAPATDGSGTALGWTVAWKNNSKNAHSATTWSGQYVGGADAKINTQWLLTSGTTNANAWKSTLVGHDTFTKVKPSAASHHHHHH
notes: Fusion of an anti-CEACAM5 scFv and mutant streptavidin V2122; also called CEA-Cupid; scFv-V2122

B2: CEA-V2122-FITC: purified CEA-V2122 protein labeled with Fluorescein Labeling Kit—NH2 (conjugate)
chain: B1 chain
recognition of CEACAM5 on cells (FIG. 7) (CEACAM5; 20 nM, 4° C. 30 minutes, CEACAM5-positive MKN-45 vs CEACAM5-negative DLD1 cells): specifically recognizes CEACAM5 on the surface of the cell membrane
localisation of CEACAM5 after binding (FIG. 8) (CEACAM5; time-series images of MKN45 cells): the CEACAM5 stays on the surface of the cell membrane

KD=kd1/ka1 ([2]; bivalent analysis): 1.078E−12
binding to CEACAM5 (FIG. 5) ([2]; from the KD value in the sensorgram): strongly binds to CEACAM5
ka1 [2, 3]: 3.208E+5
kd1 [2, 3]: 3.461E−7
B3: CEA-V2122: scFv-type anti-CEACAM5 antibody bound with mutant streptavidin V2122 via an amino acid linker, SEQ ID NO: 14 (protein)
chain: B1 chain
